From PMC4749439 (Cell metabolism, 2015)
No end group written: not given here.

T1: S^35-SDHB (human, UniProt P21912 1-280, S^35 label)
T1 sequence (looked up): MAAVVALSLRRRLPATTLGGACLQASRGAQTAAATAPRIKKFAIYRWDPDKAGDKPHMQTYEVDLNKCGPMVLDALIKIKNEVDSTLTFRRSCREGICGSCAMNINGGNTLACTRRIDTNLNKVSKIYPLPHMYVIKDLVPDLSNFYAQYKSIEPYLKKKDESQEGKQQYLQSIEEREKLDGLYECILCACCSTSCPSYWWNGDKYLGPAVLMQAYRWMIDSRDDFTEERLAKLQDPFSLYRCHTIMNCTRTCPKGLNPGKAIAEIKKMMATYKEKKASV

T2: S^35-HSC20 (UniProt Q8IWL3 1-235, S^35 label)
T2 sequence (looked up): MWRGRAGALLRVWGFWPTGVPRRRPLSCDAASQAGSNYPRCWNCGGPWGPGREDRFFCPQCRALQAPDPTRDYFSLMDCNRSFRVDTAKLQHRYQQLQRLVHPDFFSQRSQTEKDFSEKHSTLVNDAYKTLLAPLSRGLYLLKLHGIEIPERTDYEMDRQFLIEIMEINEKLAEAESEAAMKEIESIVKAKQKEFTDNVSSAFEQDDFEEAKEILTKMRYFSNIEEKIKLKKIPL

B1: S^35-labeled FLAG-tagged SDHAF1 wild type (in vitro) (natural protein, human, UniProt A6NFY7 1-115, looked up)
chain: MSRHSRLQRQVLSLYRDLLRAGRGKPGAEARVRAEFRQHAGLPRSDVLRIEYLYRRGRRQLQLLRSGHATAMGAFVRPRAPTGEPGGVGCQPDDGDSPRNPHDSTGAPETRPDGR
modifications: S^35 label

What follows are binders tested against T1, S^35-SDHB (assay: pull-down).

binding result	Binder
binds	SDHAF1 clone 2 (residues 40–115) (domain or fragment, human, UniProt A6NFY7 40-115, looked up, S^35 label) AGLPRSDVLRIEYLYRRGRRQLQLLRSGHATAMGAFVRPRAPTGEPGGVGCQPDDGDSPRNPHDSTGAPETRPDGR
binds	SDHAF1 clone 4 (residues 50–115) (domain or fragment, human, UniProt A6NFY7 50-115, looked up, also: 35S label) IEYLYRRGRRQLQLLRSGHATAMGAFVRPRAPTGEPGGVGCQPDDGDSPRNPHDSTGAPETRPDGR
binds	SDHAF1 clone 5 (residues 61–115) (domain or fragment, human, UniProt A6NFY7 61-115, looked up, also: 35S label) LQLLRSGHATAMGAFVRPRAPTGEPGGVGCQPDDGDSPRNPHDSTGAPETRPDGR

These binders were tested against T2, S^35-HSC20 (assay: pull-down).

binding result	Binder
binds	MSRHSRLQRQVLSLYRDLLRAGRGKPGAEARVRAEFRQH (domain or fragment, human, UniProt A6NFY7 1-39, looked up, also: 35S label) [SDHAF1 clone 1 (residues 1–39)]
binds	MSRHSRLQRQVLSLYRDLLRAGRGKPGAEARVRAE (domain or fragment, human, UniProt A6NFY7 1-35, looked up, also: 35S label) [SDHAF1 clone 3 (residues 1–35)]
binds	B1
binds	SDHAF1 second LYR to triple alanines (in vitro) (natural protein, human, UniProt A6NFY7 1-115, looked up, S^35 label) MSRHSRLQRQVLSLYRDLLRAGRGKPGAEARVRAEFRQHAGLPRSDVLRIEYAAARGRRQLQLLRSGHATAMGAFVRPRAPTGEPGGVGCQPDDGDSPRNPHDSTGAPETRPDGR
binds	SDHAF1 G57R (in vitro) (natural protein, human, UniProt A6NFY7 1-115, looked up, S^35 label) MSRHSRLQRQVLSLYRDLLRAGRGKPGAEARVRAEFRQHAGLPRSDVLRIEYLYRRRRRQLQLLRSGHATAMGAFVRPRAPTGEPGGVGCQPDDGDSPRNPHDSTGAPETRPDGR

The binders below were run against B1 (assay: pull-down).

binding result	Binder
binds	SDHB146-218 (domain or fragment, human, UniProt P21912 146-218, looked up) FYAQYKSIEPYLKKKDESQEGKQQYLQSIEEREKLDGLYECILCACCSTSCPSYWWNGDKYLGPAVLMQAYRW
